Like-named read-outs stand apart in the source and are kept apart here.
Tests used:
Assay in all cases: SPR
S10 [1] = biological target: S10
R07 [2] = biological target: R07
S15 [3] = biological target: S15
S02 [4] = biological target: S02
R17 [5] = biological target: R17
S08 [6] = biological target: S08
R10 [7] = biological target: R10
R14 [8] = biological target: R14
S10 [9] = biological target: S10; remark: listed apart in the source
R07 [10] = biological target: R07; remark: listed apart in the source
S15 [11] = biological target: S15; remark: listed apart in the source
S02 [12] = biological target: S02; remark: listed apart in the source
R17 [13] = biological target: R17; remark: listed apart in the source
S08 [14] = biological target: S08; remark: listed apart in the source
R10 [15] = biological target: R10; remark: listed apart in the source
R14 [16] = biological target: R14; remark: listed apart in the source
[17] = biological target: T1, HCoV-229E S ectodomain (17–1115 aa), 229E S trimer (human coronavirus 229E, UniProt P15423 17-1115)
T1 chain: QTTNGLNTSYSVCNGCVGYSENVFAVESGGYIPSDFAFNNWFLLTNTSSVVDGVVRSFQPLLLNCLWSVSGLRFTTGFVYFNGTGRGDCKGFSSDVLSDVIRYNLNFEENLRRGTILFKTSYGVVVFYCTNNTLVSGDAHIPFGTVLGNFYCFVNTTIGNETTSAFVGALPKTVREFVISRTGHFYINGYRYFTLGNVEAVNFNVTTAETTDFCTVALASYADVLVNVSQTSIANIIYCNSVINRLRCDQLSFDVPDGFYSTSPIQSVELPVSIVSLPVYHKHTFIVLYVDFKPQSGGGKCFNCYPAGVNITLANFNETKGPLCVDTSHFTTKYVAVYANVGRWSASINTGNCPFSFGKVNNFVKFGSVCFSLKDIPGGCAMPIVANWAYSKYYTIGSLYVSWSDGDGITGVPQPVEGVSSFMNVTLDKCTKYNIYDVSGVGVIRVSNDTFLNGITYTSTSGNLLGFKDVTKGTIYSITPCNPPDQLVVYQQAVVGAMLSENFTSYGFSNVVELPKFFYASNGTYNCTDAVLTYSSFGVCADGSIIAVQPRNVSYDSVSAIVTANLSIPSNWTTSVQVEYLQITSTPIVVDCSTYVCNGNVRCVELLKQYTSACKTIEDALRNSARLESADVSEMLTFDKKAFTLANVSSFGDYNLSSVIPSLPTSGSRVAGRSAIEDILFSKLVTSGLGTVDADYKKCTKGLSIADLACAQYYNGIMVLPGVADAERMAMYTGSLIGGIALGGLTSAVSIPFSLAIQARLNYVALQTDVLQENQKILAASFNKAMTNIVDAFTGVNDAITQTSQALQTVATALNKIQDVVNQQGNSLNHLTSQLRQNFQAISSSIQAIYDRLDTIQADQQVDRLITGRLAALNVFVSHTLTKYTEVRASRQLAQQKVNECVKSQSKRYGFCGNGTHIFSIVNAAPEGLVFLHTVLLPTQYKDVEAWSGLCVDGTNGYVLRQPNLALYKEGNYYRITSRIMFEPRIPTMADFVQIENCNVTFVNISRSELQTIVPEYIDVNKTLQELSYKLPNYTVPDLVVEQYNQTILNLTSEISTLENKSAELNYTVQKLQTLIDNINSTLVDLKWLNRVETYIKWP

[18] = biological target: T2, HCoV-229E S2 subunit (575–1115 aa) (human coronavirus 229E, UniProt P15423 575-1115)
T2 chain: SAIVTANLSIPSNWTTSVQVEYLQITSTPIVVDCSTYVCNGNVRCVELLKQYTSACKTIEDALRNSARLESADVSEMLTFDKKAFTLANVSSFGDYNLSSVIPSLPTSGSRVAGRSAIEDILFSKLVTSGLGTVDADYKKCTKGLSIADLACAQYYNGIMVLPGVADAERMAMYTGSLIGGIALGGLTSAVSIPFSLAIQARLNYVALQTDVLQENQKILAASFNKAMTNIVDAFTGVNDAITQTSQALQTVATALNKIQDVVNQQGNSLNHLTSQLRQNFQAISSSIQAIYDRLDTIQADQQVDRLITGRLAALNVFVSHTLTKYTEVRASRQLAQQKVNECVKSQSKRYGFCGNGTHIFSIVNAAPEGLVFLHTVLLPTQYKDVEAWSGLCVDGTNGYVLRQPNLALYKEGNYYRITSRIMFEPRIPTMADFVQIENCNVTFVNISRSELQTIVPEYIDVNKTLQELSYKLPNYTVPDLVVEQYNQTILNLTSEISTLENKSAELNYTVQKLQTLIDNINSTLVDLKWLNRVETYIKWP

[19] = biological target: T3, HCoV-NL63 S ectodomain (16–1291 aa) (human coronavirus NL63, UniProt Q6Q1S2 16-1291)
T3 chain: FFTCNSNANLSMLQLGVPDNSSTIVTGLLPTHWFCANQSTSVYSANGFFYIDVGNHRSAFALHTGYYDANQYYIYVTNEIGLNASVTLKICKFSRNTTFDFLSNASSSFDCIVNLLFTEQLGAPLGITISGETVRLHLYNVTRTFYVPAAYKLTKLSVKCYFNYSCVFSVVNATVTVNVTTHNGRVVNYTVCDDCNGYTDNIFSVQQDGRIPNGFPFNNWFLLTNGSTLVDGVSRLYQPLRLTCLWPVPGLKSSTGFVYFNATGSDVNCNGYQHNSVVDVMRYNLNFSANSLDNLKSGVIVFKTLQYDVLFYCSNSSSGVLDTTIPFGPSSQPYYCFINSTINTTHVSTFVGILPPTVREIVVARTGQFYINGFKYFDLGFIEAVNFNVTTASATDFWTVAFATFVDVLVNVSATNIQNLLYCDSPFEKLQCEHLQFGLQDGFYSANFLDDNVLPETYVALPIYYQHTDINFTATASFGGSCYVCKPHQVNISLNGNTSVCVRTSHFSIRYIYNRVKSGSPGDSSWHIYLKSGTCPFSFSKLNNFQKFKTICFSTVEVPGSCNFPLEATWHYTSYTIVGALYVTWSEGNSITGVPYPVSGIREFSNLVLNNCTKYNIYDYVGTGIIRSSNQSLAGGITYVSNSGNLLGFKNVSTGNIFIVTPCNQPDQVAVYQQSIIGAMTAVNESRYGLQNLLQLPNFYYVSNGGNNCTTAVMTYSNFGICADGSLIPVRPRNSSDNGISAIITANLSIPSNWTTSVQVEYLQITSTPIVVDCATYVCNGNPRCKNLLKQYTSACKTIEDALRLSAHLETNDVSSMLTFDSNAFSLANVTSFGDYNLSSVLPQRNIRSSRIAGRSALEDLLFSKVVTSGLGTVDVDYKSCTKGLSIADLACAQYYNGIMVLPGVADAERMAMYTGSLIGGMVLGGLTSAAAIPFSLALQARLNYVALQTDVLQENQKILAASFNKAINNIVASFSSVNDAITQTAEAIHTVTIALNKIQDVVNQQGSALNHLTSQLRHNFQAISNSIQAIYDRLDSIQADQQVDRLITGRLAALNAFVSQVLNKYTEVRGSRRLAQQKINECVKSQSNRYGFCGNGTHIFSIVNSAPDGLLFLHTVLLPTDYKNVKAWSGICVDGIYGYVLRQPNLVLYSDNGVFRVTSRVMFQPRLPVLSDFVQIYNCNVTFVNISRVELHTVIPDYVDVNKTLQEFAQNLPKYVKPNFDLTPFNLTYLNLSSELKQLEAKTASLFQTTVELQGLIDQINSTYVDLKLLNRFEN

[20] = biological target: T3, HCoV-NL63 S ectodomain (16–1291 aa)
[21] = biological target: T1, HCoV-229E S ectodomain (17–1115 aa), …
[22] = biological target: T4, HCoV-229E S1 subunit (17–560 aa) (human coronavirus 229E, UniProt P15423 17-560)
T4 chain: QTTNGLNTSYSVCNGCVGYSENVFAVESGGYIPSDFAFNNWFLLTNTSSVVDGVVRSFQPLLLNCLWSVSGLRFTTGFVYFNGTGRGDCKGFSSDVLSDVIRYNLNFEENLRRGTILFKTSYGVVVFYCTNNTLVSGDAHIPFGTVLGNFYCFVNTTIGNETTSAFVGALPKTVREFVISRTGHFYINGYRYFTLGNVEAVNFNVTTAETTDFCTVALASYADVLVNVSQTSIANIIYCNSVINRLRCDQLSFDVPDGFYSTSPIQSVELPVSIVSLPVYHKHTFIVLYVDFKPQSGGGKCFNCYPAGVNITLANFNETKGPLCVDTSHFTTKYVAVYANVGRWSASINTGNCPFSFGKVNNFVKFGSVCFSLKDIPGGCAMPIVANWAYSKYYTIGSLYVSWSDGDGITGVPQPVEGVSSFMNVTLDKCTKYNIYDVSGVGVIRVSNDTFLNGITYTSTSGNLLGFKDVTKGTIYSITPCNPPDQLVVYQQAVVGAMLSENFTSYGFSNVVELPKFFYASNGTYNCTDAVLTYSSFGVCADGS

[23] = biological target: T5, HCoV-229E NTD (17–265 aa) (human coronavirus 229E, UniProt P15423 17-265)
T5 chain: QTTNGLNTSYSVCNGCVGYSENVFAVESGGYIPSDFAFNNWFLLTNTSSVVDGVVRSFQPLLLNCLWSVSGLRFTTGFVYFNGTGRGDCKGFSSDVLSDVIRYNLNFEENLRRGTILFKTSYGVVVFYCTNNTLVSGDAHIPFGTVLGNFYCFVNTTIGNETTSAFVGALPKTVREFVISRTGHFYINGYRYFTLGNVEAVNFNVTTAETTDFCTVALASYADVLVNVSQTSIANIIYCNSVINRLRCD

[24] = biological target: T4, HCoV-229E S1 subunit (17–560 aa)
[25] = biological target: T5, HCoV-229E NTD (17–265 aa)

B1: HCoV-229E RBD (294–435 aa) (domain or fragment)
chain: PVYHKHTFIVLYVDFKPQSGGGKCFNCYPAGVNITLANFNETKGPLCVDTSHFTTKYVAVYANVGRWSASINTGNCPFSFGKVNNFVKFGSVCFSLKDIPGGCAMPIVANWAYSKYYTIGSLYVSWSDGDGITGVPQPVEGV
Kd (S10 [1]): 0.5 nM | Kd (R07 [2]): 2 nM | Kd (S15 [3]): 0.3 nM | Kd (S02 [4]): 0.5 nM | Kd (R17 [5]): 0.9 nM | Kd (S08 [6]): 3 nM | Kd (R10 [7]): 0.3 nM | Kd (R14 [8]): 0.8 nM | Kd (S10 [9]): 0.51 nM | koff (S10 [9]): 0.0031 s⁻¹ | koff (R07 [10]): 0.0016 s⁻¹ | Kd (S15 [11]): 0.26 nM | koff (S15 [11]): 0.00097 s⁻¹ | Kd (S02 [12]): 0.49 nM | koff (S02 [12]): 0.0018 s⁻¹ | Kd (R17 [13]): 0.92 nM | koff (R17 [13]): 0.0025 s⁻¹ | Kd (S08 [14]): 2.9 nM | koff (S08 [14]): 0.0053 s⁻¹ | Kd (R10 [15]): 0.32 nM | koff (R10 [15]): 0.0019 s⁻¹ | Kd (R14 [16]): 0.81 nM | koff (R14 [16]): 0.003 s⁻¹

B2: Fab F12 (Fab, V domains shown)
VH: EVQLVESGGGLVQPGGSLRLSCAASGFNLYYYYIHWVRQAPGKGLEWVASISPYSGYTSYADSVKGRFTISADTSKNTAYLQMNSLRAEDTAVYYCARAFSSYYSHSVGLDYWGQGTLVTVSS
VL: DIQMTQSPSSLSASVGDRVTITCRASQSVSSAVAWYQQKPGKAPKLLIYSASSLYSGVPSRFSGSRSGTDFTLTISSLQPEDFATYYCQQHSWGGLITFGQGTKVEIK
koff [17]: 0.00091 s⁻¹ | koff [18]: 2.7e-05 s⁻¹

B3: Fab F07 (Fab, V domains shown)
VH: EVQLVESGGGLVQPGGSLRLSCAASGFNISYYSIHWVRQAPGKGLEWVASIYPYYGYTSYADSVKGRFTISADTSKNTAYLQMNSLRAEDTAVYYCARSSGYYHYPYSHSGLDYWGQGTLVTVSS
VL: DIQMTQSPSSLSASVGDRVTITCRASQSVSSAVAWYQQKPGKAPKLLIYSASSLYSGVPSRFSGSRSGTDFTLTISSLQPEDFATYYCQQSYYWGGPITFGQGTKVEIK
koff [17]: 0.00035 s⁻¹ | Kd [19]: 3900 nM | Kd [20]: 6400 nM | Kd [21]: 1.4 nM | Kd [22]: 0.7 nM | Kd [23]: 3.1 nM | koff [24]: 0.00036 s⁻¹ | koff [25]: 0.00053 s⁻¹

From article PMC9636267 (2022)
